# Test results published in patent US20140274790A1.
# Ends that are not written are not given here. NH2‑PEG4 = N-terminal amino-PEG4 group (N-terminal PEGylation)
# Biological target: human IgG (human)
# Assay: SPR, synthetic peptide
Kd,fold higher affinity than GFc-C35-3/15,fold decrease of Kd against GFc-C35-3/15,ratio of Kd against GFc-C35-3/15,fold increase of affinity against GFc-C35-3/15,ratio of Kd against C35A-3/15,"ratio of Kd against C35A-3/15 (D3R, T15S)",Binder
80 µM,,,,,,,DCTYTNGDLVWCT [GFc-C35-3/15 (N10D)]
0.147 µM,,,,,,,"RCAYHRGELVWCS [GFc-C35-3/15 (D3R, T5A, T7H, N8R, N10E, T15S)]"
61 µM,,,,,,,DCAYTNGNLVWCT [GFc-C35-3/15 (T5A)]
8 µM,,18 fold,,,,,DCTYTRGNLVWCT [GFc-C35-3/15 (N8R)]
69 µM,,,,,,,RCTYTNGNLVWCT [GFc-C35-3/15 (D3R)]
25 µM,,,,,,,PDCTYTNGNLVWCTF [GFc-C35-2/16]
0.042 µM,,,,,,0.333 fold,"GPRCAYHRGELVWCSFH [C35A (D3R, T15S)]"
1.1 µM,,,,,,,"DCTYHRGNLVWCT [GFc-C35-3/15 (T7H, N8R)]"
50 µM,,,,,,,DCTWTNGNLVWCT [GFc-C35-3/15 (Y6W)]
120 µM,,,,,,,DCSYTNGNLVWCT [GFc-C35-3/15 (T5S)]
14 µM,,,,,,,GPDCTYTNGNLVWCTFH (not fully specified (bridges); cysteine pairing not given here) [GFc-C35]
130 µM,,,,,,,DCTYTNGNLVWCT [GFc-C35-3/15]

# Second part, the binder before the results:
Binder,Kd,fold higher affinity than GFc-C35-3/15,fold decrease of Kd against GFc-C35-3/15,ratio of Kd against GFc-C35-3/15,fold increase of affinity against GFc-C35-3/15,ratio of Kd against C35A-3/15,"ratio of Kd against C35A-3/15 (D3R, T15S)"
DCTYSNGNLVWCT [GFc-C35-3/15 (T7S)],26 µM,,,,,,
DCTYTLGNLVWCT [GFc-C35-3/15 (N8L)],260 µM,,,,,,
"DCAYHRGELVWCT (not fully specified (bridges); cysteine pairing not given here) [GFc-C35-3/15 (T5A, T7H, N8R, N10E)]",0.054 µM,2400 fold,,,,,
"DCTYHRGELVWCT [GFc-C35-3/15 (T7H, N8R, N10E)]",0.27 µM,,,,,,
"DCAWHRGELVWCT [GFc-C35-3/15 (T5A, Y6W, T7H, N8R, N10E)]",0.26 µM,,,,,,
"DCAYHRGNLVWCT [GFc-C35-3/15 (T7H, N8R, T5A)]",0.25 µM,,,,,,
DCTYTNGNLVWCS [GFc-C35-3/15 (T15S)],34 µM,,,0.25 fold,,,
DCTYHNGNLVWCT [GFc-C35-3/15 (T7H)],3 µM,,,,50 fold,,
DCTYRNGNLVWCT [GFc-C35-3/15 (T7R)],83 µM,,,,,,
DCTYTNGRLVWCT [GFc-C35-3/15 (N10R)],42 µM,,,,,,
DCTYTNGQLVWCT [GFc-C35-3/15 (N10Q)],160 µM,,,,,,
GPDCAYHRGELVWCTFH [C35A],0.009 µM,,,,,0.2 fold,
DCTFTNGNLVWCT [GFc-C35-3/15 (Y6F)],2100 µM,,,,,,
DCTYTNGNMVWCT [GFc-C35-3/15 (L11M)],280 µM,,,2 fold,,,
"DCTWHRGNLVWCT [GFc-C35-3/15 (T7H, N8R, Y6W)]",2 µM,,,,,,
DCTYTNGNLIWCT [GFc-C35-3/15 (V12I)],12 µM,,,0.1 fold,,,
"DCTYHRGNLIWCT [GFc-C35-3/15 (T7H, N8R, V12I)]",4.8 µM,,,,,,
DCTYTNGELVWCT [GFc-C35-3/15 (N10E)],26 µM,,,,,,

# Biological target: human IgG (human)
# Assay: affinity column with 1.2 µmol immobilized peptide, 1 mL human serum applied, elution at pH 2.5, absorbance
row,protein yield of the eluted fraction D,Binder
1,10.4 mg,{NH2‑PEG4}-DCAYHRGELVWCT-NH2 (not fully specified (bridges); printed as NH2-PEG4-DCAYHRGELVWCT-NH2; cysteine pairing not given here; also: coupled through PEG4 amine to HiTrap NHS-activated HP column) [N-terminally PEGylated C35A-3/15 (NH2-PEG4-…-NH2)]

# Biological target: human IgG (human)
# Assay: SPR, synthetic peptide on human IgG
row,Kd,Binder
1,0.011 µM,"SPDCAYHRGELVWCTFY [C35A (G1S, H17Y)]"
2,0.0133 µM,GDDCAYHRGELVWCTFH [C35A (P2D)]
3,0.0114 µM,GPDCAYHRGELVWCTHH [C35A (F16H)]
4,0.0093 µM,SPDCAYHRGELVWCTFH [C35A (G1S)]
5,0.0285 µM,GPSCAYHRGELVWCTFH [C35A (D3S)]

# The next lines start with the binder.
row,Binder,Kd
1,GPDCAYHRGELVWCTFY [C35A (H17Y)],0.012 µM
2,GPDCAYHRGELVWCSFH [C35A (T15S)],0.0144 µM
3,"SDDCAYHRGELVWCTFY (not fully specified; cysteine pairing not given here) [C35A (P2D, H17Y)]",0.013 µM

# Biological target: human IgG (human)
# Assay: SPR sensorgram analysis
koff,kon,ratio of Kd against GFc-C35-3/15,Kd,"ratio of ka against GFc-C35-3/15 (T5A, T7H, N8R, N10E)","ratio of kd against GFc-C35-3/15 (T5A, T7H, N8R, N10E)",Binder
0.025 s⁻¹,460000 M⁻¹ s⁻¹,0.0417 fold,,,,"DCAYHRGELVWCT (not fully specified (bridges); cysteine pairing not given here) [GFc-C35-3/15 (T5A, T7H, N8R, N10E)]"
0.014 s⁻¹,54000 M⁻¹ s⁻¹,,0.257 µM,< 0.125 fold,0.5 fold,"DCAWHRGELVWCT [GFc-C35-3/15 (T5A, Y6W, T7H, N8R, N10E)]"
